{"source": "patent US20150183820A1", "molecules": {"B1": {"name": "OXADac-PG01 (protein)", "chain": "MGAGTPVTAPLAGTIWKVLASEGQTVAAGEVLLILEAMKMETEIRAAQAGTVRGIAVKAGDAVAVGDTLMTLAGSGSDLYDDDDKGIITSLYKKAGSAAAPFTDTYKLILNGKTLKGETTTEAVDAATAEKVFKQYANDNGVDGEWTYDDATKTFTVTE"}, "B2": {"name": "OXADac-PG14 (designed binder)", "chain": "B1 chain with D139E, N140H, E145H, D150P, A151E"}, "B3": {"name": "OXADac-PG15 (designed binder)", "chain": "B1 chain with T114R, D139E, N140H, D150P, A151E"}, "B4": {"name": "OXADac-PG16 (designed binder)", "chain": "B1 chain with T120I, D139E, N140H, D150P, A151E"}, "B5": {"name": "OXADac-PG17 (designed binder)", "chain": "B1 chain with T114R, T120I, D139E, N140H, D150P, A151E"}, "B6": {"name": "OXADac-PG19 (designed binder)", "chain": "B1 chain with Q135H, D139E, N140H, D143H, E145H, D150P, A151E"}, "B7": {"name": "OXADac-PG20 (designed binder)", "chain": "B1 chain with D125H, Q135H, D139E, N140H, D143H, E145H, D150P, A151E"}, "B8": {"name": "M-PG07 (designed binder)", "chain": "MDTYKLILNGKTLKGETTTEAVDAATAEKVFKQYANEHGVDGEWTYDPETKTFTVTE"}, "B9": {"name": "M-PG19 (designed binder)", "chain": "B8 chain with Q33H, D41H, E43H"}, "B10": {"name": "CGB01H-3D (protein)", "chain": "MAYYDPETGTWYSGGRDTYKLILNGKTLKGETTTEAVDAATAEKVFKQYANDNGVDGEWTYDDATKTFTVTERPEVIDASELTPAVDTYKLILNGKTLKGETTTEAVDAATAEKVFKQYANDNGVDGEWTYDDATKTFTVTERPEVIDASELTPAVDTYKLILNGKTLKGETTTEAVDAATAEKVFKQYANDNGVDGEWTYDDATKTFTVTERPEVIDASELTPAVGGGGCHHHHHH"}, "B11": {"name": "CGB19H-3D (designed binder)", "chain": "MAYYDPETGTWYSGGRDTYKLILNGKTLKGETTTEAVDAATAEKVFKHYANEHGVHGHWTYDPETKTFTVTERPEVIDASELTPAVDTYKLILNGKTLKGETTTEAVDAATAEKVFKHYANEHGVHGHWTYDPETKTFTVTERPEVIDASELTPAVDTYKLILNGKTLKGETTTEAVDAATAEKVFKHYANEHGVHGHWTYDPETKTFTVTERPEVIDASELTPAVGGGGCHHHHHH"}, "B12": {"name": "OXADac-PG07 (designed binder)", "chain": "B1 chain with D139E, N140H, D150P, A151E"}, "B13": {"name": "OXADac-PG13 (designed binder)", "chain": "B1 chain with D139E, N140H, D143H, D150P, A151E"}}, "key": {"[1]": {"target": "gamma-globulin derived from human serum (Wako Pharmaceuticals)", "assay": "pH gradient affinity chromatography, commercial comparison column"}, "[2]": {"target": "IgG1 type humanized monoclonal antibody", "assay": "pH gradient affinity chromatography, binder immobilized on streptavidin column"}, "human immunoglobulin IgG [3]": {"target": "human immunoglobulin IgG", "assay": "SPR, binder on SA chip, 1 uM IgG, dissociation in 10 mM sodium acetate pH 4.0"}, "human immunoglobulin IgG [4]": {"target": "human immunoglobulin IgG", "assay": "SPR, binder on SA chip, dissociation at pH 4.0, 1:1 Langmuir"}, "[5]": {"target": "ChromPure Human IgG, Fc Fragment (human)", "assay": "stepwise pH affinity chromatography, binder immobilized on streptavidin column"}, "human immunoglobulin IgG [6]": {"target": "human immunoglobulin IgG", "assay": "SPR, binder on SA chip, dissociation at pH 4.0"}, "[7]": {"target": "Fc region of human immunoglobulin (human)", "assay": "SPR, Fc on CM4 chip, pH 4.5, 1:1 Langmuir"}, "[8]": {"target": "Fc region of human immunoglobulin (human)", "assay": "SPR, Fc on CM5 chip, pH 7.4, 1:1 Langmuir"}, "[9]": {"target": "Fc region of human immunoglobulin (human)", "assay": "SPR, Fc on CM5 chip, pH 7.4"}, "[10]": {"target": "IgG1 type humanized monoclonal antibody", "assay": "SPR, IgG1 antibody amine-coupled on CM-5 chip (5000 RU), pH 7.4, 25 C, 1:1 Langmuir"}, "[11]": {"target": "Fc region of human immunoglobulin (human)", "assay": "SPR, Fc on CM4 chip, pH 4.5"}, "[12]": {"target": "IgG1 type humanized monoclonal antibody", "assay": "pH gradient affinity chromatography, Epoxy-activated Sepharose 6B immobilized column"}, "human IgG3 [13]": {"target": "human IgG3", "assay": "pH gradient affinity chromatography, Epoxy-activated Sepharose 6B immobilized column"}, "[14]": {"target": "IgG1 type humanized monoclonal antibody", "assay": "SPR, IgG1 antibody amine-coupled on CM-5 chip, pH 7.4"}, "[15]": {"target": "IgG1 type humanized monoclonal antibody"}, "[16]": {"target": "gamma-globulin derived from human serum (Wako Pharmaceuticals)", "assay": "pH gradient affinity chromatography, DSC-activated immobilized column"}, "[17]": {"target": "IgG1 type humanized monoclonal antibody", "assay": "pH gradient affinity chromatography, SulfoLink immobilized column"}, "human IgG3 [18]": {"target": "human IgG3", "assay": "pH gradient affinity chromatography, SulfoLink immobilized column"}}, "note": "Changes are numbered by the printed parent chain. Where two headings read alike, the source gives them in different places."}
{"molecule": "Sepharose 4 Fast Flow column (GE Healthcare)", "values": [{"measurement": "elution peak pH", "setting": "[1]", "result": 3.2, "unit": "pH"}]}
{"molecule": "B1", "values": [{"measurement": "value of the elution peak of antibody in pH-gradient chromatography", "setting": "[2]", "result": 3.18, "unit": "pH"}, {"measurement": "ratio of the remaining amount of antibody by SPR sensorgram at pH 4.0", "setting": "human immunoglobulin IgG [3]", "result": 99, "unit": "%"}, {"measurement": "koff", "setting": "human immunoglobulin IgG [4]", "result": "4.2e-05", "unit": "s⁻¹"}, {"measurement": "recovery ratio of antibody in step-wise pH chromatography at pH 4.0", "setting": "[5]", "result": 10, "unit": "%"}]}
{"molecule": "B2", "values": [{"measurement": "ratio of the remaining amount of antibody by SPR sensorgram at pH 4.0", "setting": "human immunoglobulin IgG [3]", "result": 71, "unit": "%"}, {"measurement": "koff", "setting": "human immunoglobulin IgG [4]", "result": 0.04, "unit": "s⁻¹"}]}
{"molecule": "B3", "values": [{"measurement": "ratio of the remaining amount of antibody by SPR sensorgram at pH 4.0", "setting": "human immunoglobulin IgG [3]", "result": 90, "unit": "%"}, {"measurement": "koff", "setting": "human immunoglobulin IgG [4]", "result": 0.00044, "unit": "s⁻¹"}]}
{"molecule": "B4", "values": [{"measurement": "ratio of the remaining amount of antibody by SPR sensorgram at pH 4.0", "setting": "human immunoglobulin IgG [3]", "result": 94, "unit": "%"}, {"measurement": "koff", "setting": "human immunoglobulin IgG [4]", "result": 0.00013, "unit": "s⁻¹"}]}
{"molecule": "B5", "values": [{"measurement": "value of the elution peak of antibody in pH-gradient chromatography", "setting": "[2]", "result": 3.27, "unit": "pH"}, {"measurement": "ratio of the remaining amount of antibody by SPR sensorgram at pH 4.0", "setting": "human immunoglobulin IgG [3]", "result": 86, "unit": "%"}, {"measurement": "koff", "setting": "human immunoglobulin IgG [4]", "result": 0.032, "unit": "s⁻¹"}]}
{"molecule": "B6", "values": [{"measurement": "increase of the dissociation rate constant against the wild-type (OXADac-PG01) (orders of magnitude)", "setting": "human immunoglobulin IgG [6]", "result": 3}, {"measurement": "percent of adsorbed IgG dissociated at pH 4.0", "setting": "human immunoglobulin IgG [6]", "result": 60, "unit": "%"}, {"measurement": "value of the elution peak of antibody in pH-gradient chromatography", "setting": "[2]", "result": 4.04, "unit": "pH"}, {"measurement": "ratio of the remaining amount of antibody by SPR sensorgram at pH 4.0", "setting": "human immunoglobulin IgG [3]", "result": 38, "unit": "%"}, {"measurement": "koff", "setting": "human immunoglobulin IgG [4]", "result": 0.27, "unit": "s⁻¹"}, {"measurement": "elution rate at pH 4 against the wild-type (OXADac-PG01)", "setting": "[5]", "result": 7, "unit": "times"}, {"measurement": "recovery ratio of antibody in step-wise pH chromatography at pH 4.0", "setting": "[5]", "result": 88, "unit": "%"}]}
{"molecule": "B7", "values": [{"measurement": "elution pH difference against the wild-type (OXADac-PG01)", "setting": "[2]", "result": 1.1, "unit": "pH points"}, {"measurement": "value of the elution peak of antibody in pH-gradient chromatography", "setting": "[2]", "result": 4.29, "unit": "pH"}, {"measurement": "ratio of the remaining amount of antibody by SPR sensorgram at pH 4.0", "setting": "human immunoglobulin IgG [3]", "result": 58, "unit": "%"}, {"measurement": "elution rate at pH 4 against the wild-type (OXADac-PG01)", "setting": "[5]", "result": 7, "unit": "times"}, {"measurement": "recovery ratio of antibody in step-wise pH chromatography at pH 4.0", "setting": "[5]", "result": 71, "unit": "%"}]}
{"molecule": "B8", "values": [{"measurement": "Kd", "setting": "[7]", "result": 230, "unit": "nM"}, {"measurement": "Kd", "setting": "[8]", "result": 290, "unit": "nM"}]}
{"molecule": "B9", "values": [{"measurement": "avidity in the neutral region against M-PG01", "setting": "[9]", "result": 11, "unit": "times"}, {"measurement": "Kd", "setting": "[7]", "result": 1000, "unit": "nM"}, {"measurement": "Kd", "setting": "[8]", "result": 43, "unit": "nM"}, {"measurement": "Kd", "setting": "[10]", "result": 19, "unit": "nM"}, {"measurement": "affinity in the acidic region against M-PG01", "setting": "[11]", "result": 0.6, "unit": "times"}]}
{"molecule": "B10", "values": [{"measurement": "elution peak pH", "setting": "[12]", "result": 3.3, "unit": "pH"}, {"measurement": "elution peak pH", "setting": "human IgG3 [13]", "result": 3.4, "unit": "pH"}]}
{"molecule": "B11", "values": [{"measurement": "avidity improvement against the single domain-type M-PG19", "setting": "[14]", "result": 190, "unit": "fold"}, {"measurement": "difference of the dissociation rate constants against M-PG19", "setting": "[14]", "result": 370, "unit": "times"}, {"measurement": "elution peak pH", "setting": "[15]", "result": 4.3, "unit": "pH"}, {"measurement": "Kd", "setting": "[10]", "result": 0.1, "unit": "nM"}, {"measurement": "elution peak pH", "setting": "[16]", "result": 3.6, "unit": "pH"}, {"measurement": "elution peak pH", "setting": "[17]", "result": 4.3, "unit": "pH"}, {"measurement": "elution peak pH", "setting": "human IgG3 [18]", "result": 5.2, "unit": "pH"}, {"measurement": "elution peak pH", "setting": "human IgG3 [13]", "result": 4.9, "unit": "pH"}]}
{"molecule": "B12", "values": [{"measurement": "ratio of the remaining amount of antibody by SPR sensorgram at pH 4.0", "setting": "human immunoglobulin IgG [3]", "result": 93, "unit": "%"}, {"measurement": "koff", "setting": "human immunoglobulin IgG [4]", "result": 0.00011, "unit": "s⁻¹"}]}
{"molecule": "B13", "values": [{"measurement": "value of the elution peak of antibody in pH-gradient chromatography", "setting": "[2]", "result": 3.56, "unit": "pH"}, {"measurement": "ratio of the remaining amount of antibody by SPR sensorgram at pH 4.0", "setting": "human immunoglobulin IgG [3]", "result": 64, "unit": "%"}, {"measurement": "koff", "setting": "human immunoglobulin IgG [4]", "result": 0.06, "unit": "s⁻¹"}]}
